{"source": "patent US20030073808", "key": {"[1]": {"system": "ChePep-1 (PSDE coupled with the peptide having SEQ ID No. 4)"}, "[2]": {"system": "ChePep-2 (IDA coupled with a peptide having SEQ ID No. 5)"}, "[3]": {"system": "ChePep-3 (PSDE combined with a peptide having SEQ ID No. 6)"}, "[4]": {"system": "ChePep-5 (AFTA combined with a peptide having SEQ ID No. 7)"}, "[5]": {"system": "ChePep-6 (AFTA combined with a peptide having SEQ ID No. 8)"}}, "data": [{"substance": "Active MMP-9 enzyme", "values": [{"measurement": "hydrolysis of fluoresceinated collagen by MMP-9", "setting": "[1]", "value": "prevents the enzyme from degrading fluoresceinated collagen in a dose dependent manner"}, {"measurement": "FRET substrate peptide cleavage by MMP-9", "setting": "[2]", "value": "regulates MMP-9 in the fluorescence resonance energy transfer (FRET) assay in a dose dependent manner"}, {"measurement": "FRET substrate peptide cleavage by MMP-9", "setting": "[3]", "value": "show nearly identical ability to regulate MMP-9 in the standard FRET assay"}, {"measurement": "FRET substrate peptide cleavage by MMP-9", "setting": "[4]", "value": "ChePep-5 proves to be a better regulator than the IDA or the PSDE based chelating peptides"}, {"measurement": "FRET substrate peptide cleavage by MMP-9", "setting": "[5]", "value": "ChePep-6 is an effective MMP-9 regulator at low molar stoichiometries"}]}]}
